B1: SSAP_60: SEQ ID NO: 229 (protein)
chain: ASKNEAIEVSPAEIASVKEKPASIVKAEKAKKEPCALVKYEDAEGREVVLTREDIINTISSNPRITDKEIKLFIELARAQKLNPFTREIFITKYGDYPATFIVGKDVFTKRAQSNPLFKGMQAGIIVQRGNAVDQREGSATFGDEMLIGGWCKVYVQGYDVPIYDSVSFNEYAARKTDGTLNAMWASKPATMIRKVAIVHALREAFPSDFQGLYDQSEMGLSGQGGE
B2: SSAP_174: SEQ ID NO: 343; Hespellia stercorisuis (protein, listed as Hespellia stercorisuis)
chain: ADIKEELAKKVAEGTEDKKKLTKSMSIADLIKAMEPEIKKALPEVITPERFTRMALSALNTTPKLKECTQTSFLTALMNAAQLGLEPNTPLGQAYLIPYKNKGNLECQFQIGYKGLIDLSYRNRQMQIIQAQAVYENDEFEYELGLNPVLVHRPALQNRGAVKLFYGIFKLTNGGFGFEVMSKADMDAYAKEYSKAFDSSFSPWKSNYIGMAKKTVIKQAIKYAPLKTDFRKALSTDETIKTEFCEDMSEVQCKDIWDTEYKERSA
B3: SSAP_115: SEQ ID NO: 284; Lacrimispora amygdalina (protein, listed as Lacrimispora amygdalina)
chain: AVDVKNELERKASGQNSQVKLTKSMTIADMVKALEPEIKRALPAVLTPERFTRMALSAINNTPELAGCTPMSFIAAMMNAAQLGLEPNTPLGQAYLIPYKNKGVLECQFQIGYKGMIDLAYRTGQIQVIQGQAVREFDYFEYQYGLDPKLVHRPGEEERGEITFIYGLFRLSNGGYGFEVSNKADMDAFAAKYSKSFGSKYSPWTENYEDMAKKTVIKRALKYAPVSVDFQKAMSMDETIKTEISVDMSEIRNECPEISENGEAA
B4: SSAP_182: SEQ ID NO: 351; Lacrimispora sphenoides (protein)
chain: ADVKQELEKRAAGSGGQSVKLTKNMTIVDMVKALEPEIKRALPCILTPERFSRMALSAINNTPKLGECTPMSFIAALMNAAQLGLEPNTPLGQAYLIPYKNKGVLECQFQLGYRGLIDLAYRNERMQSIEAQVVYDNDEFSYELGLHPSLIHRPTFDEPGEIQAFYAIFRLDNGGFRFEVMSKNYVDSLCHALFKSIYFRFQSLEK
modifications: Lacrimispora sphenoides
B5: SSAP_157: SEQ ID NO: 326; Pseudoflavonifractor sp. An184 (protein, listed as Pseudoflavonifractor sp.)
chain: ATEKAIQRATGRAPALENRPALQQYIKQMSGEIKKALPSVMTPERFTRIVLSALSTNPKLAETTPQSFLGAMMTAAQLGLEPNTPLGQAYLLPYWNSKANAYECQFQLGYKGLLDLAYRSGEISVIQAHVVYSEDQFSYSFGLKPELKHIPAGEERGEPVYVYAIFHTKDGGYGFEVCSIDDIRAHAQRYSKSFQNGPWQTNFEEMAKKTVLKRVLKYAPLKSEFLRGLAQDETIKQEISEDMYMVEAAYAEPDVSSAEND
B6: SSAP_89: SEQ ID NO: 258; Pantoea brenneri (protein, listed as Pantoea brenneri)
chain: SNQPPIASADLQKTQQSKQVANKTPEQTLVGFMNQPAMKSQLAAALPRHMTADRMIRIVTTEIRKTPQLAQCDQSSFIGAVVQCSQLGLEPGSALGHAYLLPFGNGRSKSGQSNVQLIIGYRGMIDLARRSGQIVSLSARVVRADDEFSFEYGLDENLVHRPGENEDAPITHVYAVARLKDGGTQFEVMTVKQVEKVKAQSKASSNGPWVTHWEEMAKKTVIRRLFKYLPVSIEMQKAVVLDEKAESDVDQDNASVLSAEYSVLESGDEATN
B7: SSAP_9: SEQ ID NO: 178; Bet Gammaproteobacteria (protein)
chain: EKPKLIQRFAERFSVDPNKLFDTLKATAFKQRDGSAPTNEQMMALLVVADQYGLNPFTKEIFAFPDKQAGIIPVVGVDGWSRIINQHDQFDGMEFKTSENKVSLDGAKECPEWMECIIYRRDRSHPVKITEYLDEVYRPPFEGNGKNGPYRVDGPWQTHTKRMLRHKSMIQCSRIAFGFVGIFDQDEAERIIEGQATHVVEPSVIPPEQVDDRTRGLVYKLIERAEASNAWNSALEYANEHFQGVELTFAKQEIFNAQQQAAKALTQPLAS
modifications: Gammaproteobacteria
notes: Bet Gammaproteobacteria
B8: SSAP_264: SEQ ID NO: 433; Cereibacter johrii (protein, listed as Cereibacter johrii)
chain: TENTAQAPAAARQLTPIQAISQTLESDAFAPKISASLDGTGISPARFKRAALACLSRPEASYLVEKCDRGSIFTAVMNAAAAELELHPALGQAYIVPRGGQAVLQVGYKGFIALASRAGLAVEADVIYAGDRFSIRKGTNPDVSVEPELDPAKRGEWVAVYVITHYASGAKTLTFMTRAEVEAIRNRYSDAYKRGGAGAKTWNESPEEMAKKTCIRRASKLWPISVPGGGDDDGGEVIEADPAPVPAPRMRDVTPGGGLDRLAASL
B9: SSAP_217: SEQ ID NO: 386; Streptomyces noursei (protein, listed as Streptomyces noursei)
chain: TSPIRAAVARRAGDPAALISQYTADFAAVLPSHIKPATFVRLAQGILRRDEKLAQAAANDPGQFMSVLLDAARLGLEPGTEAYYLVPFKGRVQGIVGWQGEIELMYRAGAISSVIVETVREDDVFVWTPGLVDRETPPRWEGPMSYPFHEVEWAGDRGPLRLVYAYAVMKGGATSKVVVLNAQDIERAKKTSQGADSPSSPWRQHEAAMWSKTAVHRLAKYVPTSAEYITAQVRAVRQADALSAPPVEEVVDVELVGDGQEQEARR
B10: SSAP_189: SEQ ID NO: 358; Asaia sp. W19 (protein, listed as Asaia sp.)
chain: SNALATPTEKLRTQITSMTGEFRNALPSHIKPEKFQRVVMTVVQQNQGLMNADRKSLLASCLKCAADGLIPDGREAALVMFGQQVQYMPMLAGIQKRIRNSGEIASIQAHVIYENDHFIWHQGIDASIEHRPLFPGDRGKAIGAYAVAKFKDGSDPQFEVMDVAAIEKVRAVSRAGKSGPWVQWWDEMARKTVFRRLSKWLPMDTEAEDLMRRDDENDAQDVAAPTIRVEAEAPSKLDALEHDDDGVVLEETRELEGSAA
B11: SSAP_156: SEQ ID NO: 325; Bacillus sp. AFS017336 (protein, listed as Bacillus sp.)
chain: ATNESLKNQITNKKTGEVPLTPAQQVSSYLKAYEGTFQQIAPKHFNTERFQRIALSEIRKNPKLLECSVPSLMSAVLQSVKLGLEPGLFGQAYLIPYGKEVQFQIGYRGLIELSQRSGRILKIQAREVYENDEFEVSYGIDDNIIHKPALDVDRGKVRLYYAVAWFKDGGAQFELMSISDVEKHRDKFSKTAKFGPWKDHFDEMAKKTVLKKLVKQLPMDVEFQEAVQEDETVRKTITDEPEILQAEFEIVDQPEISVE
B12: SSAP_13: SEQ ID NO: 182 (protein)
chain: ANELGIFSVDNLNMTTIKQYLDGGGKASDAELVLLINLCKQNNMNPFMKEVYFIKYGNQPAQIVVSRDFYRKRAFQNPNFVGIEVGVIVLNKDGVLEHNEGTFKTHEQELVGAWARVHLKNTEIPVYVAVSYDEYVQMKDGHPNKMWTNKPCTMLGKVAESQALRMAFPAEFSGTYGEEEFPEPEKEPREVNGVKEPDRAQIESFDKEDYAAKKIEELKEKAQPQKEVVEETGEVIDEEPLEGF
B13: SSAP_99: SEQ ID NO: 268; Pseudomonas stutzeri (protein, listed as Pseudomonas stutzeri)
chain: STENVAPFSQKDMQQATGQQVKPRSPADSLAAMLASPKMKAQFAAALPKHMTAERMARIVTTEIRKTPALVKCDQHSFLGSVIQCAQLGLEPGNSLGHAYLLPYGNQVQLIIGYRGMIDLARRSGQIVSLSARTVREHDEFDYQLGLHEDLTHKPFEGEHAGEITHVYAVARLQGGGVQFEVMSKAQVEAVRAQSKAGKSGPWVSHWEEMAKKTVIRRLFKYLPVSVEIQRAVTLDEAAEAGLPQGNEYVFDGDFEVVNDASGAQQ

Legend:
Format in all cases: cell-based
gene editing with Cas9 = experiment: Screen of 322 new SSAP proteins, gene editing activity with Cas9 (Table 5); set-up: Cas9 with SSAP activity: scale not given here
How it was run: (§1)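 Read-out is gene editing activity. Candidates come from sequence data mining, are made synthetically, and are tested alongside either nuclease-active Cas9 or catalytically dead dCas9.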

gene editing with dCas9 = experiment: Screen of 322 new SSAP proteins, gene editing activity with dCas9 (Table 5); set-up: dCas9 with SSAP activity: scale not given here
How it was run: as §1

[1] = test system: gene editing with Cas9 and dCas9; experiment: Screen of 322 new SSAP proteins, activity across all experiments (Cas9 and dCas9, Table 5); set-up: scale not given here
How it was run: as §1

Row | Molecule | Cas9 with SSAP activity (gene editing with Cas9) | Cas9 with SSAP activity (normalized) (gene editing with Cas9) | dCas9 with SSAP activity (gene editing with dCas9) | dCas9 with SSAP activity (normalized) (gene editing with dCas9) | Activity across all experiments [1]
1 | B1 | 0.757 | 0.560 | 0.311 | 0.109 | 0.534
2 | B2 | −3.891 | −0.617 | −5.563 | −1.144 | −4.727
3 | B3 | −4.259 | −0.733 | −5.725 | −1.307 | −4.992
4 | B4 | −1.549 | −1.689 | −5.663 | −0.742 | −3.606
5 | B5 | −3.533 | −1.181 | −5.734 | −0.898 | −4.633
6 | B6 | 0.562 | 0.533 | 0.225 | 0.240 | 0.393
7 | B7 | −0.503 | −1.380 | −5.773 | −1.126 | −3.138
8 | B8 | 0.565 | 0.375 | −5.815 | −0.919 | −2.625
9 | B9 | −1.938 | −1.023 | −5.577 | −0.839 | −3.758
10 | B10 | −0.440 | −2.025 | −5.652 | −0.952 | −3.046
11 | B11 | 0.844 | 2.230 | −5.389 | −0.877 | −2.272
12 | B12 | −0.463 | −0.403 | −5.545 | −0.758 | −3.004
13 | B13 | −3.807 | −0.873 | −5.333 | −0.891 | −4.570
